# Earlier results in paper PMC3082522.
# Biological target: filamentous actin (Oryctolagus cuniculus) (UniProt P68135)
substance,measurement,value
espin (from UniProt Q63618),Kd,220 nM
